We go through eight molecules from PMC10397247.

Assay in all cases: two-hybrid library CCmax;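 note: natural log of median RNA to DNA barcode read ratio; higher means stronger binding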
The target in one test is T1, P2-AA-12HGe-Q.
T1 chain: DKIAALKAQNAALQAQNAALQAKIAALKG
To be noted: mean of both orientations.

The target in the next test is T2, P2-AA-12HGe-D.
T2 chain: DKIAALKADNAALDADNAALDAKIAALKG

The target of a further test is T3, P2-AA-12HGe-T.
T3 chain: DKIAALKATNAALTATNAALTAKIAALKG
To be noted: mean of both orientations.

The target in the next test is T4, P2-AA-12HGe-S.
T4 chain: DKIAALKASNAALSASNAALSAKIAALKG

A further test deals with T5, P2-AA-12HGe-A.
T5 chain: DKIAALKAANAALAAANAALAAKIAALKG
The settings on record: mean of both orientations.

A further test addresses T6, P2-AA-12HGe-H.
T6 chain: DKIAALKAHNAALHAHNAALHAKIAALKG
The settings on record: mean of both orientations.

The target of another test is T7, P2-AA-12HGe-M.
T7 chain: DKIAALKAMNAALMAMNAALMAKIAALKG
The settings on record: mean of both orientations.

A further test concerns the target T8, P2-AA-12HGe-E.
T8 chain: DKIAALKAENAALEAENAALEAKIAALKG
To be noted: mean of both orientations.

In a further test the target is T9, P2-AA-12HGe-R.
T9 chain: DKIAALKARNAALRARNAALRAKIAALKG
The settings on record: mean of both orientations.

The target in another test is T10, P2-AA-12HGe-W.
T10 chain: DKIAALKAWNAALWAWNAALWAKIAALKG
To be noted: mean of both orientations.

For the next test, the target named is T11, P2-AA.
T11 chain: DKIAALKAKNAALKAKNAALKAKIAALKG
To be noted: mean of both orientations.

Read-outs that look alike come from different tables or passages of the source.

For the molecule DEIAALEASNAALSASNAALSAEIAALEG [P1-AA-12HGe-S], the interaction score with P2-AA-12HGe-Q is 0.702; in the test with P2-AA-12HGe-D, -1.82; with P2-AA-12HGe-T, -1.11; with P2-AA-12HGe-S (mean of both orientations), -1.39; with P2-AA-12HGe-A it was -0.678; with P2-AA-12HGe-H it was -1.82. Besides, the interaction score is -0.332 with P2-AA-12HGe-M; 0.07 with P2-AA-12HGe-E; 1 in the test with P2-AA-12HGe-R; -1.58 with P2-AA-12HGe-W; 0.744 with P2-AA.

Regarding DEIAALEARNAALRARNAALRAEIAALEG [P1-AA-12HGe-R], the interaction score in the test with P2-AA-12HGe-Q is 1.28; with P2-AA-12HGe-D (mean of both orientations) it was 1.05; in the test with P2-AA-12HGe-T, 0.3; in the test with P2-AA-12HGe-S (mean of both orientations) it was 1.19; with P2-AA-12HGe-A, 1.68; with P2-AA-12HGe-H it was -0.986. Besides, the interaction score with P2-AA-12HGe-M is -0.0699; with P2-AA-12HGe-E, 2.08; in the test with P2-AA-12HGe-R, -0.893; with P2-AA-12HGe-W it was -1.15; with P2-AA it was -0.71.

Regarding DEIAALEAMNAALMAMNAALMAEIAALEG [P1-AA-12HGe-M], the interaction score was 2.16 with P2-AA-12HGe-Q; -1.52 in the test with P2-AA-12HGe-D (mean of both orientations); 1.77 in the test with P2-AA-12HGe-T; 1.02 with P2-AA-12HGe-S (mean of both orientations); 1.71 in the test with P2-AA-12HGe-A; 0.866 in the test with P2-AA-12HGe-H. Moreover, the interaction score in the test with P2-AA-12HGe-M came out at 1.82; in the test with P2-AA-12HGe-E, 2.2; in the test with P2-AA-12HGe-R, 1.45; in the test with P2-AA-12HGe-W it was 0.93; with P2-AA it was 1.39.

Regarding DEIAALEADNAALDADNAALDAEIAALEG [P1-AA-12HGe-D], the interaction score with P2-AA-12HGe-Q is -1.62; in the test with P2-AA-12HGe-D (mean of both orientations) it was -1.75; in the test with P2-AA-12HGe-T it was -1.52; with P2-AA-12HGe-S (mean of both orientations), -1.99; in the test with P2-AA-12HGe-A, -2.7; with P2-AA-12HGe-H, -1.41. Besides, the interaction score in the test with P2-AA-12HGe-M was -2.19; with P2-AA-12HGe-E, -1.55; with P2-AA-12HGe-R, 1.33; with P2-AA-12HGe-W, -2.14; with P2-AA, 1.36.

For DEIAALEAYNAALYAYNAALYAEIAALEG [P1-AA-12HGe-Y], the interaction score was 0.637 with P2-AA-12HGe-Q; -1.65 in the test with P2-AA-12HGe-D (mean of both orientations); -0.661 with P2-AA-12HGe-T; -1.06 in the test with P2-AA-12HGe-S (mean of both orientations); -0.289 with P2-AA-12HGe-A; -1.21 with P2-AA-12HGe-H. The interaction score is 1.77 in the test with P2-AA-12HGe-M; 2.36 with P2-AA-12HGe-E; -0.521 in the test with P2-AA-12HGe-R; -0.349 with P2-AA-12HGe-W; -0.194 with P2-AA.

As to DEIAALEAQNAALQAQNAALQAEIAALEG [P1-AA-12HGe-Q], the interaction score with P2-AA-12HGe-Q was 1.8; with P2-AA-12HGe-D (mean of both orientations) it was -1.92; with P2-AA-12HGe-T, 1.03; with P2-AA-12HGe-S (mean of both orientations), 0.227; in the test with P2-AA-12HGe-A, 1.99; with P2-AA-12HGe-H it was 0.459. The interaction score with P2-AA-12HGe-M is 1.64; with P2-AA-12HGe-E it was 2.09; with P2-AA-12HGe-R, 1.56; with P2-AA-12HGe-W it was -0.264; with P2-AA it was 1.92.

Consider DEIAALEAANAALAAANAALAAEIAALEG [P1-AA-12HGe-A], for which the interaction score with P2-AA-12HGe-Q is 1.96; with P2-AA-12HGe-D (mean of both orientations), -1.64; with P2-AA-12HGe-T, 1.71; in the test with P2-AA-12HGe-S it was -0.384; with P2-AA-12HGe-A, 1.6; with P2-AA-12HGe-H, 0.332. For the same molecule, the interaction score stood at 1.4 in the test with P2-AA-12HGe-M; 1.62 with P2-AA-12HGe-E; 0.662 with P2-AA-12HGe-R; 0.0222 in the test with P2-AA-12HGe-W; 1.49 with P2-AA.

In the case of DEIAALEATNAALTATNAALTAEIAALEG [P1-AA-12HGe-T], the interaction score was 0.761 with P2-AA-12HGe-Q; -1.6 in the test with P2-AA-12HGe-D (mean of both orientations); -0.824 with P2-AA-12HGe-T; -0.683 with P2-AA-12HGe-S (mean of both orientations); 0.941 in the test with P2-AA-12HGe-A; -1.51 with P2-AA-12HGe-H. For the same molecule, the interaction score with P2-AA-12HGe-M was -0.103; with P2-AA-12HGe-E it was 1.26; in the test with P2-AA-12HGe-R, -0.61; with P2-AA-12HGe-W, -1.56; with P2-AA, -0.397.
